Source: patent publication US20050090648A1 (Eli Lilly, published 2005)

Assays:
Mouse Aβ 1-40 = target: T1, Mouse Aβ 1-40 (mouse, UniProt P12023 672-711); test: BIAcore, single concentration of peptide
T1 construct: domain: Aβ 1-40; Numbers count on the Aβ peptide
T1 peptide (looked up): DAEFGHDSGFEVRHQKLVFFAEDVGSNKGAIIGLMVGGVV

Human Aβ fragment 10-20 = target: T2, Human Aβ fragment 10-20 (human, UniProt P05067 681-691); test: BIAcore, single concentration of fragment
T2 construct: domain: Aβ fragment 10-20; Numbers count on the Aβ peptide; also called human amyloid beta 10-20
T2 peptide (looked up): YEVHHQKLVFF

Human Aβ fragment 16-25 = target: T3, Human Aβ fragment 16-25 (human, UniProt P05067 687-696); test: BIAcore, single concentration of fragment
T3 construct: domain: Aβ fragment 16-25; Numbers count on the Aβ peptide; also called human amyloid beta 16-25
T3 peptide (looked up): KLVFFAEDVG

β-amyloid peptide (1-42) [1] = target: T4, β-amyloid peptide (1-42) (UniProt P05067 672-713); test: BIAcore 2000, antibody captured by anti-IgG on CM5 chip, Aβ flowed over
T4 construct: domain: β-amyloid peptide (1-42); Numbers 1-42 count on the Aβ peptide, not on the APP precursor entry; also called Aβ 1-42; Amyloid-beta 1-42
T4 sequence (P05067 672-713 limits assumed): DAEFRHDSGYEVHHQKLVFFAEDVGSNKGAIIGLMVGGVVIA

β-amyloid peptide (1-42) [2] = target: T4, β-amyloid peptide (1-42); test: competitive ELISA on coated β-amyloid peptide (1-42); competitor against biotinylated Mu3D6; second set of three experiments
β-amyloid peptide (1-42) [3] = target: T4, β-amyloid peptide (1-42); test: competitive ELISA on coated β-amyloid peptide (1-42); competitor against biotinylated Mu3D6 (0.2 µg/ml); first set of three experiments

B1: Humanized 3D6 antibody (antibody, human IgG1, kappa, V domains shown)
VH: EVQLVESGGGLVQPGGSLRLSCAGSGFTFSNYGMSWVRQAPGKGLEWVASIRSGGGRTYYSDNVKGRFTISRENAKNSLYLQMNSLRAEDTAVYYCVRYDHYSGSSDYWGQGTLVTVSS
VL: DVVMTQSPLSLPVTLGQPASISCKSSQSLLDSDGKTYLNWLQQRPGQSPRRLIYLVSKLDSGVPDRFSGSGSGTDFTLKISRVEAEDVGVYYCWQGTHFPRTFGGGTKVEIKR
notes: Expressed from pVk-Hu3D6 and pVg1-Hu3D6 in Sp2/0 (human kappa, gamma 1); also called Hu3D6
B1: no binding (Mouse Aβ 1-40); no binding (Human Aβ fragment 10-20); no binding (Human Aβ fragment 16-25). The Kd (β-amyloid peptide (1-42) [1]) was 2.3 nM, the IC50 (β-amyloid peptide (1-42) [2]) was 3.97 µg/mL and the IC50 (β-amyloid peptide (1-42) [3]) was 3.3 µg/mL.
